Eight molecules from US12138315 (Daiichi Sankyo, dated 2024) can be followed below.

Residue numbers refer to the chain shown, from its start.

Sequences and labels used below:
B1: hmAb-H11L11-DXd (antibody, V domains shown)
VH: EVQLVQSGAEVKKPGASVKVSCKASGYSFTDYNMYWVRQAPGQSLEWMGYIDPYNGDTTYNQKFQGRVTITADTSTSTAYMELSSLRSEDTAVYYCARSPYGHYAMDYWGQGTLVTVSS
VL: DIQMTQSPSSLSASVGDRVTITCKASQDVSTAVDWYQQKPGKAPKLLINWASTRHTGVPSRFSGSGSGTDFTLTISSLQPEDFATYYCRQHYSTPFTFGQGTKVEIKR
modifications: drug linker on sulfhydryl groups of reduced interchain disulfide cysteines; positions not given; drug linker (maleimidocaproyl-GGFG-DXd, exatecan derivative) on sulfhydryl groups of reduced interchain disulfide cysteines by thioether bond; average number of conjugated drug molecules per antibody 7.4 to 7.7 (common procedure F); positions not given
notes: also called hmAb-H11L11-ADC
B2: hmAb-H11L11 (antibody, human IgG1, kappa, V domains shown)
VH: B1 VH
VL: B1 VL
notes: Unconjugated humanized IgG1 kappa antibody derived from mouse HH1; also called anti-CD37 humanized antibody having hmAb-H11 as a heavy chain and hmAb-L11 as a light chain
B3: hmAb-H541L11-DXd (antibody, human IgG1, kappa, V domains shown)
VH: B1 VH with I70M, A72R, T76I, S85R, E89D, L114T
VL: B1 VL
modifications: drug linker on sulfhydryl groups of reduced interchain disulfide cysteines; positions not given; drug linker (maleimidocaproyl-GGFG-DXd, exatecan derivative) on sulfhydryl groups of reduced interchain disulfide cysteines by thioether bond; average number of conjugated drug molecules per antibody 7.8 (common procedure F); positions not given
notes: also called hmAb-H541L11-ADC
B4: hmAb-H11aL11-DXd (antibody, human IgG1, kappa, V domains shown)
VH: B1 VH with T74K, T76K
VL: B1 VL
modifications: drug linker on sulfhydryl groups of reduced interchain disulfide cysteines; positions not given; drug linker (maleimidocaproyl-GGFG-DXd, exatecan derivative) on sulfhydryl groups of reduced interchain disulfide cysteines by thioether bond; average number of conjugated drug molecules per antibody 7.6 (common procedure F); positions not given
notes: also called hmAb-H11aL11-ADC
B5: hmAb-H541L11 (antibody, human IgG1, kappa, V domains shown)
VH: B1 VH with I70M, A72R, T76I, S85R, E89D, L114T
VL: B1 VL
notes: Unconjugated humanized IgG1 kappa antibody; also called anti-CD37 humanized antibody having hmAb-H541 as a heavy chain and hmAb-L11 as a light chain
B6: hmAb-H551L11-DXd (antibody, human IgG1, kappa, V domains shown)
VH: B1 VH with I70M, A72R, T76S, S85R, E89D, L114T
VL: B1 VL
modifications: drug linker on sulfhydryl groups of reduced interchain disulfide cysteines; positions not given; drug linker (maleimidocaproyl-GGFG-DXd, exatecan derivative) on sulfhydryl groups of reduced interchain disulfide cysteines by thioether bond; average number of conjugated drug molecules per antibody 7.8 (common procedure F); positions not given
notes: also called hmAb-H551L11-ADC
B7: hmAb-H551L11 (antibody, human IgG1, kappa, V domains shown)
VH: B1 VH with I70M, A72R, T76S, S85R, E89D, L114T
VL: B1 VL
notes: Unconjugated humanized IgG1 kappa antibody; also called anti-CD37 humanized antibody having hmAb-H551 as a heavy chain and hmAb-L11 as a light chain
B8: hmAb-H11aL11 (antibody, human IgG1, kappa, V domains shown)
VH: B1 VH with T74K, T76K
VL: B1 VL
notes: Unconjugated humanized IgG1 kappa antibody; also called anti-CD37 humanized antibody having hmAb-H11a as a heavy chain and hmAb-L11 as a light chain

This test deals with T1, human CD37 protein (human, UniProt P11049 1-281).
T1 construct: Four-pass transmembrane tetraspanin
T1 sequence: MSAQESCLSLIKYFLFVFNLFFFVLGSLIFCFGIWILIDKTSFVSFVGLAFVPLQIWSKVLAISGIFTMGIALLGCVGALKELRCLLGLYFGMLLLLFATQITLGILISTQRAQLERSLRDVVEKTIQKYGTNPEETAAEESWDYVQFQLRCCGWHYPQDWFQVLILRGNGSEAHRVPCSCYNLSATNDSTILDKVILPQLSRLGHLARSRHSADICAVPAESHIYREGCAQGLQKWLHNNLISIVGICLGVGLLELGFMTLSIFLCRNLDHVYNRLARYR
Put plainly: flow cytometry on OCI-LY7 cells, FITC anti-human IgG Fc secondary. The protocol: 4)-1 Evaluation of Binding Activity of Humanized Anti-CD37 Antibody-Drug Conjugate The binding activity of the four antibody-drug conjugates (clone names: hmAb-H11L11-DXd, hmAb-H541L11-DXd, hmAb-H551L11-DXd, and hmAb-H11aL11-DXd) produced in Example 2 was evaluated by flow cytometry. CD37-positive human diffuse large B-cell lymphoma cell line OCI-LY7 (DSMZ) cultured in IMDM medium supplemented with 20% FBS under conditions of 37° C. and 5% CO_2 were recovered and centrifuged. After removal of the supernatant, the cells were suspended by the addition of each of the four antibody-drug conjugates or a negative control antibody-drug conjugate (hmAb-IgG1-DXd) produced using human IgG at each concentration. The cells were left standing at 4° C. for 1 hour. The cells were washed twice with PBS supplemented with 5% FBS, and then suspended by the addition of FLUORESCEIN (FITC)-AffiniPure F(ab')2 Fragment Goat Anti-Human IgG, Fcγ Fragment Specific (Jackson ImmunoResearch Laboratories, Inc.) that had been 100-fold diluted with PBS supplemented with 5% FBS. The cells were left standing at 4° C. for 30 minutes. The cells were washed twice with PBS supplemented with 5% FBS, followed by detection using a flow cytometer (BD LSRFortessa TM X-20, BD Biosciences). The data was analyzed using FlowJo (Tree Star, Inc.). In FIG. 6, the abscissa depicts antibody concentration (μg/ml), and the ordinate depicts the amount of the antibody bound by MFI (mean fluorescence intensity).
As to B1, the binding result was “binds”.

Take B2: the binding result is reported as “binds”.

As to B3, the binding result is recorded as “binds”.

Turning to B4, the binding result is “binds”.

Regarding B5, the binding result is on record as “binds”.

As to B6, the binding result is given as “binds”.

As for B7, the binding result is “binds”.

Take B8: the binding result is “binds”.
